From the supplement of paper PMC10065799, “High-throughput profiling of sequence recognition by tyrosine kinases and SH2 domains using bacterial peptide display” (eLife, 2023)

Assays:
Hck = Hck (UniProt P08631); test: phosphorylation enrichment, bacterial display (enrichment ratio); higher = better substrate or ligand; peptides without Tyr show the background
Jak2 = Jak2 (UniProt O60674); test: as above
Fes = Fes (UniProt P07332); test: as above
FGFR1 = FGFR1 (UniProt P11362); test: as above
Fer (mouse) = test: as above
EPHB2 = EPHB2 (UniProt P29323); test: as above
EPHB1 = EPHB1 (UniProt P54762); test: as above
MERTK = MERTK (UniProt Q12866); test: as above
AncSZ = test: as above
FGFR3 = FGFR3 (UniProt P22607); test: as above
c-Src = test: as above
c-Abl (mouse) = test: as above
Fyn = Fyn (UniProt P06241); test: as above
c-Src SH2 = test: SH2 binding enrichment of the phosphorylated peptide, bacterial display (enrichment ratio); higher = better substrate or ligand; peptides without Tyr show the background
SHP2-C SH2 = test: as above
Grb2 SH2 = Grb2 SH2 (UniProt P62993); test: as above
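Throughout, for SH2 binding enrichment of the phosphorylated peptide, bacterial display: peptide library displayed on the E. coli surface as eCPX fusions, selected cells deep-sequenced, score is each peptide's frequency after selection divided by its frequency in the input.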
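Throughout, for phosphorylation enrichment, bacterial display: 11-residue human phosphosite peptides and single-mutation variants displayed on the E. coli surface, counted by deep sequencing, each peptide's frequency after selection divided by its frequency in the unselected input library; frequency after pTyr selection over input frequency; kinase dosed for 20-30% of maximal phosphorylation in three min.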

Sequence of FGFR3 (P22607 whole entry, looked up): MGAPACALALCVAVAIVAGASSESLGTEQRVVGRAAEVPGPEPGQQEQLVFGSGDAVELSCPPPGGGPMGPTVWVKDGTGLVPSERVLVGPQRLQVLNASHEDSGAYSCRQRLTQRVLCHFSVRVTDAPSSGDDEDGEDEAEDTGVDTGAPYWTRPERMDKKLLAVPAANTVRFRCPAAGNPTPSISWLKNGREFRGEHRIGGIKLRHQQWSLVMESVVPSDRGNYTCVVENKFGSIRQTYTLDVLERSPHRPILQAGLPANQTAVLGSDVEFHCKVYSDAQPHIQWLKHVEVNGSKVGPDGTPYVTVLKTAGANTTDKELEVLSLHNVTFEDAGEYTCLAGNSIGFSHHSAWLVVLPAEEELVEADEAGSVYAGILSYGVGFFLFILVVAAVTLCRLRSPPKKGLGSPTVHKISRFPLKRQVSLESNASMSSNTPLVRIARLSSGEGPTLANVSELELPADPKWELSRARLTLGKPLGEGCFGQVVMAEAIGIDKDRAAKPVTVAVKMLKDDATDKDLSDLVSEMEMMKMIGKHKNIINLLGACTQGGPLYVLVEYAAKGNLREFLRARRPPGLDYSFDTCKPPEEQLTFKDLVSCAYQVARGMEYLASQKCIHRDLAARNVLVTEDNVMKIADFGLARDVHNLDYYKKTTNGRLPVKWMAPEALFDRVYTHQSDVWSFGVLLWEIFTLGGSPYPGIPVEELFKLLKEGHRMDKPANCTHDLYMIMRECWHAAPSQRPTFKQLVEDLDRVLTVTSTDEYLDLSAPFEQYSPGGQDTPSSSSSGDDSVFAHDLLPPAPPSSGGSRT
Sequence of EPHB1 (P54762 whole entry, looked up): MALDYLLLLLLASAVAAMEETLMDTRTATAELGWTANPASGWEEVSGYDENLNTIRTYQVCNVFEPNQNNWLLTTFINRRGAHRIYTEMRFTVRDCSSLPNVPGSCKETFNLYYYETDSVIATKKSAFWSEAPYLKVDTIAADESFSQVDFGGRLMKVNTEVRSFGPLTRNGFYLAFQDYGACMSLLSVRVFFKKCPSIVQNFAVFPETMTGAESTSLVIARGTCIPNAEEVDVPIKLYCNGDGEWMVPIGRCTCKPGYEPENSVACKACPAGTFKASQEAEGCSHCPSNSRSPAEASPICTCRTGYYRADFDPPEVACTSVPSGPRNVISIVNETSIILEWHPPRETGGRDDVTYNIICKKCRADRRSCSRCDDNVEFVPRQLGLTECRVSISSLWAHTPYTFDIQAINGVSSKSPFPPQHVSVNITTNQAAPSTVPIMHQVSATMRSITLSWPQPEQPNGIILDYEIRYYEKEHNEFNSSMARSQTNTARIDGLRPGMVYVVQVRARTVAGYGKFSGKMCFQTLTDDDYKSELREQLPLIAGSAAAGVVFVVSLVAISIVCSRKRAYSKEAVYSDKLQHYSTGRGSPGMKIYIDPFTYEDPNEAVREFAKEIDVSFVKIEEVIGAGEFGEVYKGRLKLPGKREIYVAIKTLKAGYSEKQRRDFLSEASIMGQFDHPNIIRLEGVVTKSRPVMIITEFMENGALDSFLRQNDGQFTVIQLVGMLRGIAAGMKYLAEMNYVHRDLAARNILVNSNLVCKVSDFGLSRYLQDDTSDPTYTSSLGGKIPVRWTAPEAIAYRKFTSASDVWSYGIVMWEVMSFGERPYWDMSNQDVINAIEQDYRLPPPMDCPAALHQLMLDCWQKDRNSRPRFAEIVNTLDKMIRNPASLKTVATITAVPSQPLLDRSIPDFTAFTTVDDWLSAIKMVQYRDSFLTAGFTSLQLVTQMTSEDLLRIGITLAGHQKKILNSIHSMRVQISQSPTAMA
Sequence of MERTK (Q12866 whole entry, looked up): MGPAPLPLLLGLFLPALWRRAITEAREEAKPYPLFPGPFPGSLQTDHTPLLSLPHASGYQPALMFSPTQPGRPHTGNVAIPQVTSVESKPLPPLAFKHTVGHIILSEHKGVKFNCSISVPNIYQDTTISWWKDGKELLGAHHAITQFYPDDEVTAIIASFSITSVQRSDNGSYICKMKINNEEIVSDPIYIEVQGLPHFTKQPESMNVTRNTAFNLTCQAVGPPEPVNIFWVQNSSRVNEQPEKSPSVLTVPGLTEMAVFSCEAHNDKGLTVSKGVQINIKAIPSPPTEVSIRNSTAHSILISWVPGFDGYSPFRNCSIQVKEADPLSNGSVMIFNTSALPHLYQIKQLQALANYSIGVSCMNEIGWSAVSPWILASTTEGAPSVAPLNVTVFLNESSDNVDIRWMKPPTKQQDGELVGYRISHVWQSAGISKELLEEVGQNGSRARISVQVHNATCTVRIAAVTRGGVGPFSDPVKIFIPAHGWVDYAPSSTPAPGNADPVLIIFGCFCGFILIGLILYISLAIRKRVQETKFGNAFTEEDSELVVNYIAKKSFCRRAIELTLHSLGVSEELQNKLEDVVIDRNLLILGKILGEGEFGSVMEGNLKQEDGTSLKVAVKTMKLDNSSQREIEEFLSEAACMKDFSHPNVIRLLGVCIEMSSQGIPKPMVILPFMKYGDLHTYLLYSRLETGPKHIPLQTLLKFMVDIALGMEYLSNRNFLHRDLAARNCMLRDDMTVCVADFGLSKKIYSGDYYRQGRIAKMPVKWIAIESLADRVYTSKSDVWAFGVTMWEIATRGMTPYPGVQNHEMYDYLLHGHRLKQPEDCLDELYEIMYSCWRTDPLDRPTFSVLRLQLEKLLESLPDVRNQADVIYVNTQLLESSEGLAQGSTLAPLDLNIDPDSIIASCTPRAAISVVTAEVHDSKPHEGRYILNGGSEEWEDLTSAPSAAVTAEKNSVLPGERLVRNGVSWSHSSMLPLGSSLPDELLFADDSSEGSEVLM
Sequence of FGFR1 (P11362 whole entry, looked up): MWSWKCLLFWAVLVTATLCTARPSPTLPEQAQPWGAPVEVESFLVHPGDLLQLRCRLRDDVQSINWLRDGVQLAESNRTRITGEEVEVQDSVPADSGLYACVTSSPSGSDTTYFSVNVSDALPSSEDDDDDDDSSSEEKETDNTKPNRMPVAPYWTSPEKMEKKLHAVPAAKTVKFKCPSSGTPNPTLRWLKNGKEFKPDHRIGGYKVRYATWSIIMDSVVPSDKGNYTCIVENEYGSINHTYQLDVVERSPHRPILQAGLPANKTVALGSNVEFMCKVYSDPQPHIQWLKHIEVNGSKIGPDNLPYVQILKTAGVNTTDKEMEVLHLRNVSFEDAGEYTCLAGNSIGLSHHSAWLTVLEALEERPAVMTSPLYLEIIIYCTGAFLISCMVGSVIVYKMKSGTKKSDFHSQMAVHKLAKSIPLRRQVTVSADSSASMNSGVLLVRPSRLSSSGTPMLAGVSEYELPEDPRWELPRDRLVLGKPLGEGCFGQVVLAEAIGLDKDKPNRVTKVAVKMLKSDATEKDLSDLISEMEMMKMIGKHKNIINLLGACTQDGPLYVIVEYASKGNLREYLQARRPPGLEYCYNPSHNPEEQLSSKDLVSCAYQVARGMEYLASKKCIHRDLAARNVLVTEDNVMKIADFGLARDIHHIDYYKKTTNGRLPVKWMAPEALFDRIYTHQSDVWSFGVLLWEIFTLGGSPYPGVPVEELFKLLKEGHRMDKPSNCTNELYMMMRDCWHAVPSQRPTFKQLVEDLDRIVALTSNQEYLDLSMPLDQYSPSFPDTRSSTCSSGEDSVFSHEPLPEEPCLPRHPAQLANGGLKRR
Sequence of EPHB2 (P29323 whole entry, looked up): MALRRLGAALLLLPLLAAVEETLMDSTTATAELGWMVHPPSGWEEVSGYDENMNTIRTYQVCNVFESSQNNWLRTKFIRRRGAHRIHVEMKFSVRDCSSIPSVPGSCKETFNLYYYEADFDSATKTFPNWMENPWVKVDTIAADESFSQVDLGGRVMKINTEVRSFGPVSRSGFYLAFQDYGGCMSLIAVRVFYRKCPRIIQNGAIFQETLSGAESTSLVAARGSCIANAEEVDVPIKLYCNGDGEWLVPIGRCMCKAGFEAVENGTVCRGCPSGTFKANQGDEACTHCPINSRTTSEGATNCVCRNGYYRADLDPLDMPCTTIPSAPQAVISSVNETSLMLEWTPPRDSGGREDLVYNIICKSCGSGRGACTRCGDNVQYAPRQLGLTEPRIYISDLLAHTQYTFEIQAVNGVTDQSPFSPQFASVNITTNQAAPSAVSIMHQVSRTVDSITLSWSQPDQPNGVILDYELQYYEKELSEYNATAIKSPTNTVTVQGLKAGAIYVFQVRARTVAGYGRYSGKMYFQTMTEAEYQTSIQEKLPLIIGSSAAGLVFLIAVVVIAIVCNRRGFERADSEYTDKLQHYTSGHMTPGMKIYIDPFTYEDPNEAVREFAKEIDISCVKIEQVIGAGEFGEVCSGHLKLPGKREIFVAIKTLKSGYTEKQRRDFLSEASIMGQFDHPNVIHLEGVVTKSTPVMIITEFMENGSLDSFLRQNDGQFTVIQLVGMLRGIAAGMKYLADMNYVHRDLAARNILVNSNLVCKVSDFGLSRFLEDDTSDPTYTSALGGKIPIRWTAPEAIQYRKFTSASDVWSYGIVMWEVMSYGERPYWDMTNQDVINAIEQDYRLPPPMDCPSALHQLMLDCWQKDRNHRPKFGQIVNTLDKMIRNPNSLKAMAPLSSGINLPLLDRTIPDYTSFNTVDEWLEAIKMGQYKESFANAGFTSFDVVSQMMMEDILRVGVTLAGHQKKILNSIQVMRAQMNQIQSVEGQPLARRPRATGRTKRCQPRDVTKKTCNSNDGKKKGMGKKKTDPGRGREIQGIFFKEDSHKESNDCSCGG
Sequence of Grb2 SH2 (P62993 whole entry, looked up, the tested form may be a part): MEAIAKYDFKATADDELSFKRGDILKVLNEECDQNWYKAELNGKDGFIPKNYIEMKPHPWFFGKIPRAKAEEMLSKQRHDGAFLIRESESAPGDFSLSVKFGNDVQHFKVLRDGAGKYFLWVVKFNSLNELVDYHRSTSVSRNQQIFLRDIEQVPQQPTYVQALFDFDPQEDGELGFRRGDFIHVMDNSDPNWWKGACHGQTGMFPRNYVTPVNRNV

Row | Sequence | phosphorylation enrichment (Hck) | phosphorylation enrichment (Jak2) | phosphorylation enrichment (Fes) | phosphorylation enrichment (FGFR1) | phosphorylation enrichment (Fer (mouse)) | phosphorylation enrichment (EPHB2) | phosphorylation enrichment (EPHB1) | phosphorylation enrichment (MERTK) | phosphorylation enrichment (AncSZ) | phosphorylation enrichment (FGFR3) | phosphorylation enrichment (c-Src) | phosphorylation enrichment (c-Abl (mouse)) | phosphorylation enrichment (Fyn) | SH2 binding enrichment (c-Src SH2) | SH2 binding enrichment (SHP2-C SH2) | SH2 binding enrichment (Grb2 SH2)
1 | AALSAYAPQRP [PTPRN2_Y249_A251P] | 0.529 | 0.803 | 1.08 | 0.605 | 0.541 | 0.527 | 0.54 | 0.543 | 0.853 | 0.584 | 0.521 | 0.791 | 0.733 | 0.504 | 0.549 | 0.713
2 | ACCLLYHGDVV [TUBA4A_Y319_R320H] | 0.632 | 0.797 | 0.887 | 2.49 | 1.88 | 0.539 | 0.551 | 0.739 | 0.918 | 1.45 | 5.43 | 0.69 | 0.507 | 0.835 | 0.75 | 1.03
3 | ACCLLYRGDVV [TUBA4A_Y319] | 0.645 | 0.853 | 0.889 | 3.27 | 0.758 | 0.557 | 0.507 | 0.709 | 0.947 | 1.34 | 5.88 | 0.482 | 0.565 | 0.776 | 0.849 | 1.05
4 | ACDALYPPGPP | 0.391 | 0.615 | 0.861 | 0.482 | 0.469 | 0.432 | 0.485 | 0.43 | 0.774 | 0.522 | 0.444 | 0.566 | 0.482 | 0.632 | 1.11 | 1.07
5 | ACQGKYTPSGQ [ALDOA_Y343] | 0.46 | 0.851 | 0.742 | 0.406 | 0.531 | 0.402 | 0.414 | 0.378 | 0.598 | 0.734 | 0.463 | 0.693 | 0.479 | 0.551 | 0.75 | 0.843
6 | ADEDIYGVLPA [LYNtide_2014] | 3.51 | 1.28 | 1.36 | 0.606 | 2.99 | 1.36 | 0.705 | 2.76 | 1.49 | 0.982 | 2.97 | 2.19 | 4.82 | 0.401 | 0.794 | 1.02
7 | ADFPDYKFRPR [SOX11_Y116_YF] | 0.501 | 0.728 | 0.697 | 0.455 | 0.369 | 0.422 | 0.378 | 0.413 | 1.07 | 0.58 | 0.357 | 0.403 | 0.472 | 0.614 | 0.544 | 0.968
8 | ADRARYSAFGG [RBM4_Y361] | 0.381 | 0.482 | 0.523 | 0.35 | 0.424 | 0.303 | 0.371 | 0.4 | 0.5 | 0.394 | 0.397 | 0.546 | 0.41 | 0.55 | 0.58 | 0.78
9 | AELKLYSGAQT [ZAP70_Y178_R175L] | 0.646 | 0.82 | 0.956 | 0.39 | 0.485 | 0.571 | 0.567 | 0.395 | 0.877 | 0.595 | 0.362 | 0.526 | 0.455 | 0.518 | 0.637 | 0.679
10 | AGIENYKSRFG [NKD2_Y256_T257K] | 0.517 | 0.537 | 0.486 | 0.357 | 0.409 | 0.377 | 0.451 | 0.412 | 0.578 | 0.452 | 0.363 | 0.512 | 0.356 | 0.43 | 0.487 | 0.784
11 | AHAGGYGAEAL [HBA1_Y25_E24G] | 0.454 | 0.559 | 0.665 | 0.421 | 0.398 | 0.482 | 0.436 | 0.438 | 0.63 | 0.489 | 0.385 | 0.599 | 0.433 | 0.433 | 0.546 | 0.905
12 | AHDGEYGAEAL [HBA1_Y25_A22D] | 0.445 | 0.819 | 1.08 | 0.513 | 0.534 | 0.62 | 0.556 | 0.451 | 0.97 | 0.645 | 0.424 | 0.608 | 0.552 | 0.493 | 0.563 | 0.83
13 | AIKSFYAALID [RYR1_Y2426_M2423K] | 0.758 | 0.667 | 0.981 | 0.553 | 0.479 | 1.23 | 1.25 | 2.53 | 0.882 | 0.628 | 0.481 | 0.719 | 0.504 | 1.67 | 1.5 | 1.08
14 | AIMSFYAALID [RYR1_Y2426] | 0.574 | 1.56 | 1.48 | 0.417 | 0.69 | 0.667 | 1.13 | 0.74 | 1.15 | 0.988 | 0.513 | 1.02 | 0.506 | 0.778 | 1.47 | 0.978
15 | AKLKDYYIFNK [CCDC42_Y149] | 0.503 | 0.605 | 0.635 | 3.4 | 0.457 | 0.594 | 0.449 | 0.704 | 0.596 | 2.16 | 0.808 | 0.65 | 0.515 | 0.823 | 0.711 | 1
16 | ALAAPYVLFPG [CEFIP_Y1332_YF] | 0.641 | 1.21 | 0.726 | 3.79 | 0.543 | 0.452 | 0.581 | 1.29 | 0.775 | 2.44 | 4.54 | 0.598 | 0.739 | 3.49 | 1.21 | 0.839
17 | ALADKYHGGGG [HBB_Y146_H144D] | 0.355 | 0.439 | 0.517 | 0.396 | 0.375 | 0.374 | 0.287 | 0.322 | 0.467 | 0.402 | 0.318 | 0.423 | 0.39 | 0.38 | 0.56 | 0.727

Row | Sequence | phosphorylation enrichment (Hck) | phosphorylation enrichment (Jak2) | phosphorylation enrichment (Fes) | phosphorylation enrichment (FGFR1) | phosphorylation enrichment (Fer (mouse)) | phosphorylation enrichment (EPHB2) | phosphorylation enrichment (EPHB1) | phosphorylation enrichment (MERTK) | phosphorylation enrichment (AncSZ) | phosphorylation enrichment (FGFR3) | phosphorylation enrichment (c-Src) | phosphorylation enrichment (c-Abl (mouse)) | phosphorylation enrichment (Fyn) | SH2 binding enrichment (c-Src SH2) | SH2 binding enrichment (SHP2-C SH2) | SH2 binding enrichment (Grb2 SH2)
18 | ALRASYTPSPV [ESS2_Y418_A423V] | 0.458 | 0.909 | 0.723 | 0.32 | 0.424 | 0.53 | 0.366 | 0.435 | 0.847 | 0.502 | 0.678 | 0.945 | 0.39 | 0.418 | 0.557 | 0.67
19 | AMCVCYDGVEV [ADAMTSL2_Y594_R593C] | 0.655 | 1.03 | 1.31 | 0.511 | 1.41 | 0.589 | 0.585 | 0.41 | 1.42 | 0.882 | 1.02 | 0.816 | 0.68 | 0.815 | 0.589 | 0.736
20 | ANAFIYDVQLP [L1CAM_Y420_V421D_YF] | 4.65 | 0.849 | 0.938 | 0.639 | 1.19 | 1.3 | 1.69 | 7.43 | 1.1 | 0.627 | 4.96 | 0.715 | 6.97 | 0.51 | 0.633 | 1.01
21 | ANNPLYKEATP [ITGB3_Y773_S778P] | 0.4 | 0.657 | 0.764 | 0.41 | 0.372 | 0.533 | 0.45 | 0.521 | 0.58 | 0.479 | 0.374 | 0.623 | 0.402 | 0.471 | 0.763 | 0.869
22 | ANRNVYEVEPT [MEGF10_Y1075] | 0.842 | 0.63 | 0.755 | 0.404 | 0.473 | 0.5 | 0.451 | 0.476 | 0.787 | 0.47 | 4 | 0.6 | 6.32 | 1.3 | 1.08 | 0.818
23 | ANYTEYVATRW [CDKL5_Y171] | 0.886 | 0.737 | 0.96 | 2.97 | 0.601 | 9.4 | 8.12 | 1.05 | 1.04 | 2.27 | 1.11 | 0.948 | 0.945 | 0.515 | 0.998 | 0.915
24 | ANYTEYVATSW [CDKL5_Y171_R175S] | 0.672 | 0.897 | 0.867 | 3.44 | 0.555 | 8.89 | 7.89 | 0.815 | 1.34 | 2.82 | 0.763 | 0.812 | 0.722 | 0.592 | 0.665 | 0.874
25 | APSHAYHGGVL [ANO1_Y981] | 0.5 | 0.496 | 0.494 | 0.626 | 0.502 | 0.336 | 0.371 | 0.381 | 0.52 | 0.427 | 0.475 | 0.505 | 0.382 | 0.629 | 0.501 | 0.881
26 | ARAGEYGAEAL [HBA1_Y25_H21R] | 0.432 | 0.697 | 0.829 | 0.473 | 0.383 | 0.469 | 0.465 | 0.379 | 0.866 | 0.524 | 0.396 | 0.571 | 0.655 | 0.487 | 0.667 | 0.923
27 | ARSHIYTLASC [MEFV_Y741_F743L] | 0.95 | 0.802 | 1.13 | 0.541 | 0.657 | 0.58 | 0.598 | 1.17 | 1.05 | 0.68 | 2.07 | 0.803 | 2.13 | 4.4 | 0.693 | 0.965
28 | ARVANYQRDGP [CAT_Y386] | 0.386 | 0.486 | 0.607 | 0.524 | 0.394 | 0.406 | 0.564 | 0.574 | 0.785 | 0.526 | 0.545 | 0.496 | 0.436 | 0.32 | 0.342 | 0.606
29 | ARVDTYCRHNY [HLA-DRB1_Y107_A103R] | 0.502 | 0.798 | 1.09 | 0.582 | 0.812 | 0.583 | 0.6 | 0.538 | 0.825 | 0.698 | 0.468 | 0.797 | 0.552 | 0.752 | 0.755 | 1.09
30 | ASFGPNTRVQS [FOXL2_Y258_Y258N_YF] | 0.433 | 0.565 | 0.619 | 0.479 | 0.447 | 0.399 | 0.445 | 0.365 | 0.567 | 0.442 | 0.394 | 0.525 | 0.466 | 0.542 | 0.267 | 0.8
31 | ATARPYRPFII [LRP5_Y1528_YF] | 0.405 | 0.589 | 0.61 | 0.402 | 0.406 | 0.469 | 0.356 | 0.469 | 0.465 | 0.566 | 0.389 | 1.05 | 0.359 | 0.861 | 0.625 | 1.11
32 | ATHSRYRLNDY [CLDN14_Y233_G232R] | 0.505 | 0.406 | 0.735 | 0.387 | 0.37 | 0.371 | 0.484 | 0.459 | 0.562 | 0.468 | 0.417 | 0.476 | 0.442 | 0.682 | 0.563 | 0.744
33 | DCPASYKKKSM [PDGFRA_Y768_R764C] | 0.368 | 0.168 | 0.323 | 0.416 | 0.384 | 0.189 | 0.591 | 0.363 | 0.394 | 0.202 | 0.253 | 0.337 | 0.283 |  |  | 
34 | RVGVDYEGGGC [PLOD1_Y675] |  | 0.377 |  |  |  |  |  |  |  |  | 0.287 | 0.239 |  | 0.773 | 0.884 | 1.39
